Measurements reported in patent publication US20220411483A1 (Chugai, published 2022).
Numbering of substitutions follows the chain as printed. Numbers in names are those of the source.

T1: FcγRIIa R type extracellular domain with C-terminal His tag (human, UniProt P12318 34-217)
T1 construct: extracellular domain; also called FcgRIIaR; not shown: His tag at the C terminus
T1 sequence (looked up): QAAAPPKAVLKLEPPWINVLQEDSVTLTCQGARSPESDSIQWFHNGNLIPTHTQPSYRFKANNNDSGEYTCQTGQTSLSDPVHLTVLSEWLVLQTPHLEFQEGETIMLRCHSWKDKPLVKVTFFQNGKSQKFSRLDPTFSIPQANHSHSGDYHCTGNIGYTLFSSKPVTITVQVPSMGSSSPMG

T2: FcγRIIb extracellular domain with C-terminal His tag (human, UniProt P31994 43-217)
T2 construct: extracellular domain; also called FcgRIIb; not shown: His tag at the C terminus
T2 sequence (looked up): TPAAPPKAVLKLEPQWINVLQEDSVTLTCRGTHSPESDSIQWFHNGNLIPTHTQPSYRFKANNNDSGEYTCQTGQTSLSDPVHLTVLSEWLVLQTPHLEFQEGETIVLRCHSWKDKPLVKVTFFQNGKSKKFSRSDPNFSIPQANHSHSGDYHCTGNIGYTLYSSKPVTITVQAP

T3: mouse FcγRI (mouse, UniProt P26151 25-297, limits assumed)
T3 construct: also called mFcγRI; mFc γ RI
T3 sequence (looked up): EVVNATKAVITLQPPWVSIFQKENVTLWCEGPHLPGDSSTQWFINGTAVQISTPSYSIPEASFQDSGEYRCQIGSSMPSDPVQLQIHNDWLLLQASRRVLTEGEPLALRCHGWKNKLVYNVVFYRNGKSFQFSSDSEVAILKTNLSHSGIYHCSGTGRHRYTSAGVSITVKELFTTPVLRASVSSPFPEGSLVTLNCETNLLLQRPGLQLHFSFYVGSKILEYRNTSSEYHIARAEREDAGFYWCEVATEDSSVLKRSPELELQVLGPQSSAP

T4: mouse FcγRIV (mouse, UniProt A0A0B4J1G0 21-203)
T4 construct: also called mFcγRIV; mFc γ RIV
T4 sequence: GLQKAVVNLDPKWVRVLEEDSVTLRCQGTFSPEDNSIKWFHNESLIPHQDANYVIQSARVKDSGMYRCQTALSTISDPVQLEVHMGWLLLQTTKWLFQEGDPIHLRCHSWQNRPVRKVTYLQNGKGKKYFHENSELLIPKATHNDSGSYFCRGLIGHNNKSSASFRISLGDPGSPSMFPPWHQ

T5: FcgRIIaR (human, UniProt P12318 34-217)
T5 construct: extracellular domain; also called FcγRIIa R type; FcγRIIa (R type)
T5 sequence (looked up): T1 sequence (looked up)

T6: FcgRIIb (human, UniProt P31994 43-217)
T6 construct: extracellular domain; also called FcγRIIb
T6 sequence (looked up): T2 sequence (looked up)

T7: FcgRIIaH (human, UniProt P12318 34-217)
T7 construct: extracellular domain; also called FcγRIIa H type
T7 sequence (looked up): T1 sequence (looked up) with R134H

B1: IL6R-P587/IL6R-L (antibody, human IgG1, kappa)
heavy: QVQLQESGPGLVKPSETLSLTCAVSGHSISHDHAWSWVRQPPGEGLEWIGFISYSGITNYNPSLQGRVTISRDNSKNTLYLQMNSLRAEDTAVYYCARSLARTTAMDYWGEGTLVTVSSASTKGPSVFPLAPSSKSTSGGTAALGCLVKDYFPEPVTVSWNSGALTSGVHTFPAVLQSSGLYSLSSVVTVPSSSLGTQTYICNVNHKPSNTKVDKKVEPKSCDKTHTCPPCPAPDLLGGDSVFLFPPKPKDTLMISRTPEVTCVVIDVAEEDGEVKFNWYVDGVEVHNAKTKPREEQYNSTYRVVSVLTVLHQDWLNGKEYKCKVSNKALPAPIEKTISKAKGQPREPQVYTLPPSRDELTKNQVSLTCLVKGFYPSDIAVEWESNGQPENNYKTTPPVLDSDGSFFLYSKLTVDKSRWQQGNVFSCSVMHEALHNHYTQKSLSLSP
light: not shown
notes: human IgG1
B2: VH3/L (WT)-mIgG1-mF44 (antibody)
heavy: QVQLQESGPGLVKPSETLSLTCAVSGHSISHDHAWSWVRQPPGEGLEWIGFISYSGITNYNPSLQGRVTISRDNSKNTLYLQMNSLRAEDTAVYYCARSLARTTAMDYWGEGTLVTVSSAKTTPPSVYPLAPGSAAQTNSMVTLGCLVKGYFPEPVTVTWNSGSLSSGVHTFPAVLQSDLYTLSSSVTVPSSTWPSETVTCNVAHPASSTKVDKKIVPRDCGCKPCICTVPEVSSVFIFPPKPKDVLTITLTPKVTCVVVDISKDDPEVQFSWFVDDVEVHTAQTQPREEQFNSTFRSVSELPIMHQDWLNGKEFKCRVNSADFPAPIEKTISKTKGRPKAPQVYTIPPPKEQMAKDKVSLTCMITDFFPEDITVEWQWNGQPAENYKNTQPIMDTDGSYFVYSKLNVQKSNWEAGNTFTCSVLHEGLHNHHTEKSLSHSPGK
light: not shown
B3: VH3/L (WT)-mIgG1 (antibody)
heavy: B2 heavy with D323A
light: not shown
notes: mouse IgG1 constant region
B4: VH3/L (WT)-mIgG1-mF46 (antibody)
heavy: B2 heavy with S235D
light: not shown
B5: IL6R-P636/IL6R-L (antibody, human IgG1, kappa)
heavy: B1 heavy with A269R
light: not shown
B6: IL6R-P665/IL6R-L (antibody, human IgG1, kappa)
heavy: B1 heavy with G239D, Y298D, N299A, A332R, P398M
light: not shown
notes: also called IL6R-P665/1L6R-L
B7: IL6R-P652/IL6R-L (antibody, human IgG1, kappa)
heavy: B1 heavy with G239D, A269Y, Y298D, A332R, P398M
light: not shown
B8: IL6R-P694/IL6R-L (antibody, human IgG1, kappa)
heavy: B1 heavy with A269R, Y298E
light: not shown
B9: IL6R-P699/IL6R-L (antibody, human IgG1, kappa)
heavy: B1 heavy with A269R, E270P
light: not shown
notes: Printed H238P read as H268P
B10: IL6R-P702/IL6R-L (antibody, human IgG1, kappa)
heavy: B1 heavy with F243M, A269R
light: not shown
B11: IL6R-P730/IL6R-L (antibody, human IgG1, kappa)
heavy: B1 heavy with G239Q, A269R, E270P, Y298E
light: not shown
B12: IL6R-P712/IL6R-L (antibody, human IgG1, kappa)
heavy: B1 heavy with A269R, E270P, Y298E
light: not shown

Target: T1, FcγRIIa R type extracellular domain …
Assay: SPR; ratio of KD values, reference IL6R-G1d/IL6R-L

Binder	KD of G1d for FcgRIIaR/KD of Each Variant for FcgRIIaR
B1	1.4

Target: T2, FcγRIIb extracellular domain with …
Assay: SPR; ratio of KD values, reference IL6R-G1d/IL6R-L

Binder	KD of G1d for FcgRIIb/KD of Each Variant for FcgRIIb
B1	256

Target: T3, mouse FcγRI
Assay: SPR (Biacore), method of Reference Example 2
Experimental: (§1) The binding activities of these antibodies to the mouse FcγRs were evaluated by the method of Reference Example 2.

Binder	binding result
B2	no binding
B3	no binding
B4	no binding

Target: T4, mouse FcγRIV
Assay: SPR (Biacore), method of Reference Example 2
Experimental: as §1

Binder	binding result
B2	no binding
B3	no binding
B4	no binding

Target: T5, FcgRIIaR
Assay: SPR, amount bound per captured antibody

Binder	Relative FcgRIIaR-binding Activity [IL6R-G1d/IL6R-L=100]
B5	13.8
B6	15
B7	27.5

Target: T6, FcgRIIb
Assay: SPR, amount bound per captured antibody

Binder	Relative FcgRIIb-binding Activity [IL6R-G1d/IL6R-L=100]
B5	120
B6	121
B7	149

Target: T5, FcgRIIaR
Assay: SPR (Biacore)

Binder	Relative FcgRIIaR-binding Activity
B5	0.023 KD(G1d)/KD(variant)
B6	0.025 KD(G1d)/KD(variant)
B7	0.051 KD(G1d)/KD(variant)

Target: T8, FcgRIIIaV (human, UniProt P08637 17-208)
T8 construct: extracellular domain; also called FcγRIIIa V type
T8 sequence (P08637 17-208 F176V): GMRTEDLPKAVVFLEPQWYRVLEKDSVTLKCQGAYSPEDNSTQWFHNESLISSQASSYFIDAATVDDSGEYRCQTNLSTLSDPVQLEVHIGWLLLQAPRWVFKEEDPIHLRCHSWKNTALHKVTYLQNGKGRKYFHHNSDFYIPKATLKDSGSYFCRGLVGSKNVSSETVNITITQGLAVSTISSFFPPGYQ
Assay: SPR (Biacore)

Binder	Relative FcgRIIIaV-binding Activity
B5	0.008 KD(G1d)/KD(variant)
B6	0.005 KD(G1d)/KD(variant)
B7	0.005 KD(G1d)/KD(variant)

Target: T6, FcgRIIb
Assay: SPR (Biacore)

Binder	Relative FcgRIIb-binding Activity
B5	1.77 KD(G1d)/KD(variant)
B6	1.6 KD(G1d)/KD(variant)
B7	4.18 KD(G1d)/KD(variant)

Target: T9, FcgRIa (human, UniProt P12314 16-292)
T9 construct: also called FcγRIa; FcγRI
T9 sequence (P12314 16-292): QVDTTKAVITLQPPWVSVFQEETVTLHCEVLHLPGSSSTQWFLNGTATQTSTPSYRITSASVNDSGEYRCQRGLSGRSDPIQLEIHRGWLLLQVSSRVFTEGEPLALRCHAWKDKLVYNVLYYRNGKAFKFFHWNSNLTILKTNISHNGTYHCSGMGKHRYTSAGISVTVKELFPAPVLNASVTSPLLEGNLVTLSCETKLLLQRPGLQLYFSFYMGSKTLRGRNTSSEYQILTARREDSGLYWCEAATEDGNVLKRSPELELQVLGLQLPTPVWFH
Assay: SPR (Biacore)

Binder	Relative FcgRIa-binding Activity
B5	0.0007 KD(G1d)/KD(variant)
B6	0.0002 KD(G1d)/KD(variant)
B7	0.0005 KD(G1d)/KD(variant)

Target: T7, FcgRIIaH
Assay: SPR (Biacore)

Binder	Relative FcgRIIaH-binding Activity
B5	0.006 KD(G1d)/KD(variant)
B6	0.002 KD(G1d)/KD(variant)
B7	0.006 KD(G1d)/KD(variant)

Target: T5, FcgRIIaR
Assay: SPR (Biacore)
Remark: another data set of the same source

Binder	Relative FcgRIIaR-binding Activity
B8	0.02 KD(G1d)/KD(variant)
B9	0.022 KD(G1d)/KD(variant)
B10	0.023 KD(G1d)/KD(variant)
B11	0.013 KD(G1d)/KD(variant)
B12	0.017 KD(G1d)/KD(variant)

Target: T8, FcgRIIIaV
Assay: SPR (Biacore)
Remark: another data set of the same source

Binder	Relative FcgRIIIaV-binding Activity
B8	0.007 KD(G1d)/KD(variant)
B9	0.005 KD(G1d)/KD(variant)
B10	0.008 KD(G1d)/KD(variant)
B11	0.005 KD(G1d)/KD(variant)
B12	0.004 KD(G1d)/KD(variant)

Target: T6, FcgRIIb
Assay: SPR (Biacore)
Remark: another data set of the same source

Binder	Relative FcgRIIb-binding Activity
B8	1.83 KD(G1d)/KD(variant)
B9	1.26 KD(G1d)/KD(variant)
B10	1.27 KD(G1d)/KD(variant)
B11	0.504 KD(G1d)/KD(variant)
B12	1.52 KD(G1d)/KD(variant)

Target: T9, FcgRIa
Assay: SPR (Biacore)
Remark: another data set of the same source

Binder	Relative FcgRIa-binding Activity
B8	0.0008 KD(G1d)/KD(variant)
B9	0.0005 KD(G1d)/KD(variant)
B10	0.0006 KD(G1d)/KD(variant)
B11	0.0002 KD(G1d)/KD(variant)
B12	0.0005 KD(G1d)/KD(variant)

Target: T7, FcgRIIaH
Assay: SPR (Biacore)
Remark: another data set of the same source

Binder	Relative FcgRIIaH-binding Activity
B8	0.005 KD(G1d)/KD(variant)
B9	0.004 KD(G1d)/KD(variant)
B10	0.006 KD(G1d)/KD(variant)
B11	0.003 KD(G1d)/KD(variant)
B12	0.003 KD(G1d)/KD(variant)
